The record followed here is US20250346673A1 (DUALITY BIOLOGICS SUZHOU, published 2025).

What is called EC50 is the concentration at which the effect is half-maximal. Read a high EC50 as a less potent agent. For orientation: Kd means the concentration at which binding is half-saturated.

The target of assay [1] is T1, human BDCA2 (human, UniProt Q8WTT0 1-213).
T1 construct: whole, on cells; also called hBDCA2; Blood dendritic cell antigen 2
T1 sequence (looked up): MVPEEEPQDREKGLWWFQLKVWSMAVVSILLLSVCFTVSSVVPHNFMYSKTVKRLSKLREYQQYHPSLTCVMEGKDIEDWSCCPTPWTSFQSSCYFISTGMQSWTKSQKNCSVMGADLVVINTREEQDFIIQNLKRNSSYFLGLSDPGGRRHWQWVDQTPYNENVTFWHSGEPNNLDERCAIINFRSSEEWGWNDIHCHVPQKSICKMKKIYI
Put plainly: FACS on CHOK1-hBDCA2 cells; EC50 table under the plot, unit from the x axis (nM) [continued) d.]. Summed up:
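Read-out: flow cytometry of Alexa Fluor 488 anti-mouse IgG signal (1:1000) on washed cells, EC₅₀ from curve fit. Antibody titrations were bound 1 h at 4° C in PBS+2% FBS before the secondary step, also 1 h at 4° C.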

Assay [2] has as its target T1, human BDCA2. The assay can be described thus: FACS, CHOK1-humanBDCA2 cells. The protocol:
The cells were recovered and resuspended to 2×10⁶/mL with FACS buffer (PBS+2% FBS). The resuspended cells were added to 3799 cell plates at 100 μL/well, and the supernatant was discarded after centrifugation at 300 g. […] The cells were incubated at 4° C. for 1 h. The incubated cells were centrifuged at […] for 5 min and washed twice with FACS buffer. 100 μL Goat anti-Human IgG (H+L) Cross-Adsorbed Secondary Antibody, Alexa Fluor 488 (Sigma, A11013; 1:1000) secondary antibody was added, washed twice with FACS buffer after incubation at 4° C. for 1 h. The cells were resuspended with PBS, then the fluorescence signal of antibodies bound to cell surface was analyzed with FACS (BD FACS CantoTM II) instrument and curves were fitted with GraphPad Prism6 to calculate EC₅₀ values for antibodies binding to BDCA2 antigen.
(In general: A flow cytometer gives signals particle by particle.)

A further assay has as its target T2, Recombinant Human BDCA2 (human, UniProt Q8WTT0 45-213, limits assumed).
T2 construct: also called hBDCA2 (SPR analyte); human BDCA2 antigen
T2 sequence (looked up): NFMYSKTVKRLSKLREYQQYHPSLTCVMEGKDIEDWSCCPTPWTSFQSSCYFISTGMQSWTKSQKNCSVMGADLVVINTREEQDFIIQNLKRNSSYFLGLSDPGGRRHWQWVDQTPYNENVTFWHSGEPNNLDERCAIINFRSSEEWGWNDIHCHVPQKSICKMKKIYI
Put plainly: SPR (BIAcore), antibody captured by anti-human IgG (Fc), hBDCA2 as analyte, 1:1 model. (In general: In SPR one partner is held on a chip, and binding of the other changes the refractive index at the surface.)

Assay [3] concerns the target T1, human BDCA2. The assay can be described thus: cell-based or functional assay.
In assay [4] the target is T1, human BDCA2. Put plainly: FACS on CHOK1-hBDCA2 cells; EC50 table under the plot, unit from the x axis (nM). The procedure:
(§1) The cells were recovered and resuspended to 2×10⁶/mL with FACS buffer (PBS+2% FBS). The cells were added to 3799 cell plates (Corning) at 100 μL/well, and the supernatant was discarded after centrifugation at 300 g. The antibodies were serially diluted with FACS buffer (Id.), the diluted antibodies were added to centrifuged cells and the cells were resuspended. The cells were incubated at 4° C. for 1 h. The incubated cells were centrifuged at 300 g for 5 min and washed twice with FACS buffer. 100 μL […] anti-Human IgG (H+L) Cross-Adsorbed Secondary Antibody-Alexa Fluor 488 (Sigma, A11013; 1:1000) secondary antibody was added, washed twice with FACS buffer after incubation at 4° C. for 1 h, resuspended with PBS, analyzed with FACS (BD FACS CantoTM II) instrument and curve fitted with GraphPad Prism6, and EC₅₀ values were calculated.

Assay [5] addresses T1, human BDCA2. Put plainly: FACS, CHOK1-humanBDCA2 cells. The source holds these as a separate data set.
For assay [6], the target named is T1, human BDCA2. Put plainly: FACS on CHOK1-hBDCA2 cells; EC50 table beside the plot, unit from the x axis (nM) [continued) c.]. The protocol:
as §1

Assay [7] deals with T1, human BDCA2. The assay can be described thus: FACS on CHOK1-hBDCA2 cells; EC50 table under the plot, unit from the x axis (nM). The procedure: (§2) The cells were recovered and resuspended to 2×10⁶/mL with FACS buffer (PBS+2% FBS). The cells were added to 3799 cell plates (Corning) at 100 μL/well, and the supernatant was discarded after centrifugation at 300 g. The antibodies were serially diluted with FACS buffer (Id.), the diluted antibodies were added to centrifuged cells and the cells were resuspended. The cells were incubated at 4° C. for 1 h. The incubated cells were then centrifuged at […] for 5 min and washed twice with FACS buffer. 100 μL Donkey anti-Mouse IgG (H+L) Highly Cross-Adsorbed Secondary Antibody-Alexa Fluor 488 (Invitrogen, A21202; 1:1000) secondary antibody was added to the cells, which were washed twice with FACS buffer after incubation at 4° C. for 1 h, resuspended with PBS, analyzed with FACS (BD FACS CantoTM II) instrument. The curve was fitted with GraphPad Prism6, and EC₅₀ values were calculated.
This is another data set of the same source.

Assay [8] concerns the target T1, human BDCA2. The description is as above. The source holds these as a separate data set.
Assay [9] deals with T1, human BDCA2. The assay can be described thus: FACS on CHOK1-hBDCA2 cells; EC50 table under the plot, unit from the x axis (nM) [continued) c.]. The protocol:
as §2

Assay [10] concerns the target T1, human BDCA2. The assay can be described thus: FACS on CHOK1-hBDCA2 cells; EC50 table under the plot, unit from the x axis (nM) [continued) e.]. The protocol: as §2
The target of assay [11] is T1, human BDCA2. The assay can be described thus: FACS on CHOK1-hBDCA2 cells; EC50 table under the plot, unit from the x axis (nM). The protocol:
as §1
The source holds these as a separate data set.

For a further assay, the target named is T3, cynomolgus BDCA2 (cynomolgus monkey, UniProt A0A2K5UWP4 1-212).
T3 construct: whole, on cells; also called Cyno BDCA2; cynoBDCA2
T3 sequence: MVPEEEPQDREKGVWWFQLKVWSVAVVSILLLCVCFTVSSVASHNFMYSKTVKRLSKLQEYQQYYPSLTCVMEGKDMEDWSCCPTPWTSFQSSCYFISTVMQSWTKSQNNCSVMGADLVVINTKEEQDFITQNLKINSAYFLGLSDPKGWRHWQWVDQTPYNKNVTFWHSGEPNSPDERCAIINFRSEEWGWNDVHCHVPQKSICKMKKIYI
Put plainly: FACS on 293F-cynoBDCA2 cells; EC50 table under the plot, unit from the x axis (nM) [continued) c.]. The procedure: as §2

B1: BIIB059 (antibody, V domains shown)
VH: DVQLVESGGGLVKPGGSLRLSCAASGFTFSTYTMSWVRQAPGKGLEWVATISPGDSFGYYYPDSVQGRFTISRDNAKNSLYLQMNSLRAEDTAVYYCTRDIYYNYGAWFAYWGQGTLVTVSS
VL: DIQLTQSPSSLSASVGDRVTITCKASQSVDYDGDSYMNWYQQKPGKAPKLLIYAASTLESGVPSRFSGSGSGTDFTLTISSLQPEDFATYYCQQANEDPRTFGQGTKVEIKR
On to B1, for which the EC50 in the assay with human BDCA2 [1] amounted to 1.09 nM; with human BDCA2 [2], 3.1 nM; with human BDCA2 [4], 3.45 nM; in the assay with human BDCA2 [5] it was 1.3 nM; with human BDCA2 [6], 2 nM; with human BDCA2 [7], 2.17 nM. The EC50 was determined as 2.17 nM with human BDCA2 [8], 2.48 nM with human BDCA2 [9], 1.91 nM with human BDCA2 [10] and 1.91 nM in the assay with human BDCA2 [11]. In addition, the Kd with Recombinant Human BDCA2 came out at 1.07 nM. The “EC50 (nM), inhibition of CpG-A stimulated IFNα release from human PBMC” value in the assay with human BDCA2 [3] is 0.04 nM.

B2: mAb016 (antibody, V domains shown)
VH: QVQLKQSGPGLVQPSQSLSITCTVSGFSLTSYGVHWVRQSPGKGLEWLGVIWSGESTDYDAAFISRLSISKDNSKSQVFFRMNSLQADDSAIYYCARRRSHYYGYVMDYWGQGTSVTVSS
VL: DIVLTQSPASLAVSLGQRATISCKASQSVDYDGVGYLNWYQHKPGQPPKLLIYAASNLESGIPARFSGSGSGTDFTLNIHPVEEEDAATYYCQQSNEDPPTFGSGTKLEIK
notes: Mouse hybridoma antibody
With B2, the concentration giving a half-maximal response (EC50) with cynomolgus BDCA2 was found to be 1.78 nM; in the assay with human BDCA2 [9], 1.33 nM.
